In experiment [1] the target is T1, Amyloid Beta (Aβ) 1-42 (human).
T1 construct: The same peptide was used in several aggregation states: fibrils, a heterogeneous aggregate mixture, and soluble oligomers or aggregates; also called Aβ42; Aβ 42
Nature of the experiment: competition ELISA, plate coated with fibril Aβ42, competitor hBP-biotin; IC50 of test divided by IC50 of hBP. For orientation: ELISA stands for enzyme-linked immunosorbent assay.

The target of experiment [2] is T1, Amyloid Beta (Aβ) 1-42. Nature of the experiment: competition ELISA on plate-coated Aβ42 fibrils; competitor: biotinylated hBP (bapineuzumab).
Experiment [3] concerns the target T1, Amyloid Beta (Aβ) 1-42. Nature of the experiment: SPR (BIAcore T200), Aβ1-42 fibrils immobilized on CM5, Fab as analyte, global 1:1 fit. Background: In SPR one partner is held on a chip, and binding of the other changes the refractive index at the surface.
For experiment [4], the target named is T1, Amyloid Beta (Aβ) 1-42. The experiment can be described thus: SPR (BIAcore T200), Aβ1-42 fibrils immobilized on CM5, Fab as analyte, global 1:1 fit; apparent KD.
In experiment [5] the target is T1, Amyloid Beta (Aβ) 1-42. Nature of the experiment: cell-based or functional assay.
Experiment [6] deals with T1, Amyloid Beta (Aβ) 1-42. The experiment can be described thus: direct ELISA on plate-coated Aβ42 fibrils (FIG. 21).
Experiment [7] deals with T1, Amyloid Beta (Aβ) 1-42. The experiment can be described thus: SPR (BIAcore T200), Aβ1-42 fibrils immobilized on CM5, antibody as analyte, global 1:1 fit.
Experiment [8] has as its target T1, Amyloid Beta (Aβ) 1-42. Nature of the experiment: SPR (BIAcore T200), Aβ1-42 fibrils immobilized on CM5, antibody as analyte, global 1:1 fit; apparent KD.
In experiment [9] the target is T1, Amyloid Beta (Aβ) 1-42. The experiment can be described thus: direct ELISA, fibril aBeta plate coat titrated, antibody held constant at 2 ug/ml; no unit in the table, x axis 'log ng/ml Abeta' [right panel].
In experiment [10] the target is T1, Amyloid Beta (Aβ) 1-42. The experiment can be described thus: direct ELISA, antibody titrated on 2.5 ug/ml plate-coated fibril Abeta; the row head of the drawn table reads 'IC50', the note below it says EC50; no unit in the table, x axis 'log ng/ml antibody' [left panel].

A word on the koff: it is a measure of how fast the partners let go of each other. The term kon denotes a measure of how fast the partners come together. As a reminder, the EC50 is the concentration giving half of the maximal effect. Low values mean an effect from little substance, high ones a need for much substance.

T1 sequence (peptide, as listed by the source): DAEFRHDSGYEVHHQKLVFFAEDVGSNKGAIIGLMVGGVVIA

B1: h2826 (antibody, V domains shown)
VH: EVQLLESGGGLVQPGGSLRLSCAASGFTFSNFGMSWVRQAPGKGLEWVASVRSGSGRTYYSDNVKGRFTISRDNSKNTLYLQMNSLRAEDTAVYYCVRYDHYSGTSDYWGQGTLVTVSS
VL: DVVMTQSPLSLPVTPGEPASISCKSSQSLLDYDGKTYLNWLLQKPGQSPQRLIYKVSNRDSGVPDRFSGSGSGTDFTLKISRVEAEDVGVYYCWQGTHFPRTFGQGTKVEIK
Take B1: the “IC50 ratio (test:hBP)” value in [1] was found to be 1.1.

B2: 4918 (antibody, V domains shown)
VH: EVQLLESGGGLVQPGGSLRLSCAASGFTFSNFGMSWVRQAPGKGLEWVASVRSGGGRTYYSDNVKGRFTISRDNSKNTLYLQMNSLRAEDTAVYYCVRYDHYSGTSDYWGQGTLVTVSS
VL: DVVMTQSPLSLPVTLGEPASISCKSSQSLMDTDGKTYLNWLLQKPGQSPQRLIYKVSNRESGVPDRFSGSGSGTDFTLKISRVEAEDVGVYYCWQGTHFPRTFGQGTKVEIK
notes: It is not in the first reading's list; also called h4918G; h4918
With B2, the binding result in [2] was “binds”.

B3: h2731 Fab (Fab, V domains shown)
VH: EVQLLESGGGLVQPGGSLRLSCAASGFTFSNYGMSWVRQAPGKGLEWVASIRSGSGRTYYSDNVKGRFTISRDNSKNTLYLQMNSLRAEDTAVYYCVRYDHYSGSSDYWGQGTLVTVSS
VL: DVVMTQSPLSLPVTLGEPASISCKSSQSLLDYDGKTYLNWLLQKPGQSPQRLIYRVTNRDTGVPDRFSGSGSGTDFTLKISRVEAEDVGVYYCWQGTHFPRSFGQGTKVEIK
Turning to B3, in experiment [3], the off-rate (koff) amounted to 0.000289 s⁻¹ and the kon stood at 129000 M⁻¹ s⁻¹. Further, the Kd in [4] amounted to 2.24 nM.

B4: h2931 Fab (Fab, V domains shown)
VH: EVQLLESGGGLVQPGGSLRLSCAASGFTFSNFGMSWVRQAPGKGLEWVASVRSGSGRTYYSDNVKGRFTISRDNSKNTLYLQMNSLRAEDTAVYYCVRYDHYTGTSDYWGQGTLVTVSS
VL: DVVMTQSPLSLPVTLGEPASISCKSSQSLLDYDGKTYLNWLLQKPGQSPQRLIYRVTNRDTGVPDRFSGSGSGTDFTLKISRVEAEDVGVYYCWQGTHFPRSFGQGTKVEIK
On to B4, for which, in [3], the dissociation rate constant (koff) was 0.000199 s⁻¹ and the kon came to 123000 M⁻¹ s⁻¹. In [4], the Kd is 1.62 nM.

B5: h2929 (antibody, V domains shown)
VH: EVQLLESGGGLVQPGGSLRLSCAASGFTFSNFGMSWVRQAPGKGLEWVASVRSGSGRTYYSDNVKGRFTISRDNSKNTLYLQMNSLRAEDTAVYYCVRYDHYTGTSDYWGQGTLVTVSS
VL: DVVMTQSPLSLPVTPGEPASISCRSSQSLVDYDGKTYLNWLLQRPGQSPQRLIYKVSNRDSGVPDRFSGSGSGTDFTLKISRVEAEDVGVYYCWQGSHFPRSYGQGTKVEIK
Turning to B5, the “IC50 ratio (test:hBP)” value in experiment [1] is 1.16.

B6: h2831 Fab (Fab, V domains shown)
VH: EVQLLESGGGLVQPGGSLRLSCAASGFTFSNFGMSWVRQAPGKGLEWVASVRSGSGRTYYSDNVKGRFTISRDNSKNTLYLQMNSLRAEDTAVYYCVRYDHYSGTSDYWGQGTLVTVSS
VL: DVVMTQSPLSLPVTLGEPASISCKSSQSLLDYDGKTYLNWLLQKPGQSPQRLIYRVTNRDTGVPDRFSGSGSGTDFTLKISRVEAEDVGVYYCWQGTHFPRSFGQGTKVEIK
For B6, in experiment [3], the off-rate (koff) came out at 0.000248 s⁻¹ and the kon was found to be 108000 M⁻¹ s⁻¹. Further, the Kd in [4] was determined as 2.31 nM.

B7: h2726 Fab (Fab, V domains shown)
VH: EVQLLESGGGLVQPGGSLRLSCAASGFTFSNYGMSWVRQAPGKGLEWVASIRSGSGRTYYSDNVKGRFTISRDNSKNTLYLQMNSLRAEDTAVYYCVRYDHYSGSSDYWGQGTLVTVSS
VL: DVVMTQSPLSLPVTPGEPASISCKSSQSLLDYDGKTYLNWLLQKPGQSPQRLIYKVSNRDSGVPDRFSGSGSGTDFTLKISRVEAEDVGVYYCWQGTHFPRTFGQGTKVEIK
Regarding B7, in experiment [3], the dissociation rate constant (koff) worked out at 0.000259 s⁻¹ and the kon came to 129000 M⁻¹ s⁻¹. Moreover, the Kd in experiment [4] came to 2.01 nM.

B8: h4917G (antibody, V domains shown)
VH: EVQLLESGGGLVQPGGSLRLSCAASGFTFSNFGMSWVRQAPGKGLEWVASVRSGGGRTYYSDNVKGRFTISRDNSKNTLYLQMNSLRAEDTAVYYCVRYDHYSGTSDYWGQGTLVTVSS
VL: DVVMTQSPLSLPVTLGEPASISCKSSQSLLDSDGKTYLNWLLQKPGQSPQRLIYKVTNRESGVPDRFSGSGSGTDFTLKISRVEAEDVGVYYCWQGTHFPRSFGQGTKVEIK
notes: also called h49_VK17
As to B8, in [1], the “IC50 ratio (test:hBP)” value stood at 2.69.

B9: bapineuzumab Fab (Fab, V domains shown)
VH: EVQLLESGGGLVQPGGSLRLSCAASGFTFSNYGMSWVRQAPGKGLEWVASIRSGGGRTYYSDNVKGRFTISRDNSKNTLYLQMNSLRAEDTAVYYCVRYDHYSGSSDYWGQGTLVTVSS
VL: DVVMTQSPLSLPVTPGEPASISCKSSQSLLDSDGKTYLNWLLQKPGQSPQRLIYLVSKLDSGVPDRFSGSGSGTDFTLKISRVEAEDVGVYYCWQGTHFPRTFGQGTKVEIK
notes: also called hBP
Turning to B9, in experiment [4], the Kd came to 5.34 nM.

B10: h2926 (antibody, V domains shown)
VH: EVQLLESGGGLVQPGGSLRLSCAASGFTFSNFGMSWVRQAPGKGLEWVASVRSGSGRTYYSDNVKGRFTISRDNSKNTLYLQMNSLRAEDTAVYYCVRYDHYTGTSDYWGQGTLVTVSS
VL: DVVMTQSPLSLPVTPGEPASISCKSSQSLLDYDGKTYLNWLLQKPGQSPQRLIYKVSNRDSGVPDRFSGSGSGTDFTLKISRVEAEDVGVYYCWQGTHFPRTFGQGTKVEIK
Take B10: the “IC50 ratio (test:hBP)” value in experiment [1] stood at 0.99.

B11: h49k3G (antibody, V domains shown)
VH: EVQLLESGGGLVQPGGSLRLSCAASGFTFSNFGMSWVRQAPGKGLEWVASVRSGGGRTYYSDNVKGRFTISRDNSKNTLYLQMNSLRAEDTAVYYCVRYDHYSGTSDYWGQGTLVTVSS
VL: DVVMTQSPLSLPVTLGEPASISCKSSQSLLDSDGKTYLNWLLQKPGQSPQRLIYKVSNRDSGVPDRFSGSGSGTDFTLKISRVEAEDVGVYYCWQGTHFPRTFGQGTKVEIK
notes: also called h49_hum3; 49human3
Turning to B11, the “IC50 ratio (test:hBP)” value in experiment [1] is 2.16.

B12: h2927 (antibody, V domains shown)
VH: EVQLLESGGGLVQPGGSLRLSCAASGFTFSNFGMSWVRQAPGKGLEWVASVRSGSGRTYYSDNVKGRFTISRDNSKNTLYLQMNSLRAEDTAVYYCVRYDHYTGTSDYWGQGTLVTVSS
VL: DVVMTQSPLSLPVTPGEPASISCKSSQSLLDYDGKTYLNWLLQKPGQSPQRLIYKVSNRDSGVPDRFSGSGSGTDFTLKISRVEAEDVGVYYCWQGTHFPRSFGQGTKVEIK
For B12, the “IC50 ratio (test:hBP)” value in [1] was found to be 1.6.

B13: h3818G (antibody, V domains shown)
VH: EVQLLESGGGLVQPGGSLRLSCAASGFTFANYGMSWVRQAPGKGLEWVASVRSGGSRTYYSDNVKGRFTISRDNSKNTLYLQMNSLRAEDTAVYYCVRYDHYSGSSDYWGQGTLVTVSS
VL: DVVMTQSPLSLPVTLGEPASISCKSSQSLMDTDGKTYLNWLLQKPGQSPQRLIYKVSNRESGVPDRFSGSGSGTDFTLKISRVEAEDVGVYYCWQGTHFPRTFGQGTKVEIK
With B13, the “IC50 ratio (test:hBP)” value in experiment [1] is 1.18.

B14: h2727 (antibody, V domains shown)
VH: EVQLLESGGGLVQPGGSLRLSCAASGFTFSNYGMSWVRQAPGKGLEWVASIRSGSGRTYYSDNVKGRFTISRDNSKNTLYLQMNSLRAEDTAVYYCVRYDHYSGSSDYWGQGTLVTVSS
VL: DVVMTQSPLSLPVTPGEPASISCKSSQSLLDYDGKTYLNWLLQKPGQSPQRLIYKVSNRDSGVPDRFSGSGSGTDFTLKISRVEAEDVGVYYCWQGTHFPRSFGQGTKVEIK
B14: in [1], the “IC50 ratio (test:hBP)” value came to 3.06.

B15: h4921G (antibody, V domains shown)
VH: EVQLLESGGGLVQPGGSLRLSCAASGFTFSNFGMSWVRQAPGKGLEWVASVRSGGGRTYYSDNVKGRFTISRDNSKNTLYLQMNSLRAEDTAVYYCVRYDHYSGTSDYWGQGTLVTVSS
VL: DVVMTQSPLSLPVTLGEPASISCKSSQSLLDSDGKTYLNWLLQKPGQSPQRLIYRVTNRDTGVPDRFSGSGSGTDFTLKISRVEAEDVGVYYCWQGTHFPRTFGQGTKVEIK
For the molecule B15, the “IC50 ratio (test:hBP)” value in experiment [1] amounted to 1.01.

B16: h2931 (antibody, V domains shown)
VH: EVQLLESGGGLVQPGGSLRLSCAASGFTFSNFGMSWVRQAPGKGLEWVASVRSGSGRTYYSDNVKGRFTISRDNSKNTLYLQMNSLRAEDTAVYYCVRYDHYTGTSDYWGQGTLVTVSS
VL: DVVMTQSPLSLPVTLGEPASISCKSSQSLLDYDGKTYLNWLLQKPGQSPQRLIYRVTNRDTGVPDRFSGSGSGTDFTLKISRVEAEDVGVYYCWQGTHFPRSFGQGTKVEIK
notes: Humanized IgG
Take B16: in experiment [5], the “IC50 of Abeta spots per neuron (% Abeta control); the table gives no unit, the x axis is 'mAb (µg/mL)'” value worked out at 0.627 µg/mL and the “Total Area (under the curve of Abeta spots per neuron, % Abeta control)” value turned out to be 8480. In experiment [6], the “fold increase in assay signal (OD490) relative to aducanumab” value amounted to 3 fold. Moreover, in experiment [7], the koff stood at 2.05e-05 s⁻¹ and the kon came out at 335000 M⁻¹ s⁻¹. For the same molecule, the Kd in experiment [8] came out at 0.0612 nM. Further, the “IC50 ratio (test:hBP)” value in experiment [1] was 0.59. For the same molecule, the “IC50 (half-maximal fibril Abeta coating concentration at constant antibody)” value in experiment [9] is 0.335 µg/mL. In experiment [10], the concentration giving a half-maximal response (EC50) amounted to 0.0435 µg/mL.
